Biological target: the molecule itself
Assay: cross-linking; disulfide cross-linking of introduced cysteines in transiently transfected HEK293 cells, untreated or with 10 ug/ml collagen I for 90 min at 37 °C; lysis in 1% Nonidet P-40 buffer with NEM; nonreducing SDS-PAGE on 5% gels, Western blot with anti-DDR1; efficiency as percent dimeric of total DDR1

Protein | dimerization efficiency (percent dimeric of total DDR1) [%] | stoichiometry N
DDR1 residue 415 to cysteine (in the C287S background) (receptor, human, UniProt Q08345 19-913, looked up, discoidin domain receptor 1, isoform DDR1b, human; full-length cDNA in pRK5; The text gives only the range V408C to A417C (10 single mutants); also called one of the 10 mutants V408C to A417C; source: HEK293, transiently transfected, in lysate) DADMKGHFDPAKCRYALGMQDRTIPDSDISASSSWSDSTAARHSRLESSDGDGAWCPAGSVFPKEEEYLQVDLQRLHLVALVGTQGRHAGGLGKEFSRSYRLRYSRDGRRWMGWKDRWGQEVISGNEDPEGVVLKDLGPPMVARLVRFYPRADRVMSVCLRVELYGCLWRDGLLSYTAPVGQTMYLSEAVYLNDSTYDGHTVGGLQYGGLGQLADGVVGLDDFRKSQELRVWPGYDYVGWSNHSFSSGYVEMEFEFDRLRAFQAMQVHSNNMHTLGARLPGGVECRFRRGPAMAWEGEPMRHNLGGNLGDPRARAVSVPLGGRVARFLQCRFLFAGPWLLFSEISFISDVVNNSSPALGGTFPPAPWWPPGPPPTNFSSLELEPRGQQPVAKAEGSCTAILIGCLVAIILLLLLIIALMLWRLHWRRLLSKAERRVLEEELTVHLSVPGDTILINNRPGPREPPPYQEPRPRGNPPHSAPCVPNGSALLLSNPAYRLLLATYARPPRGPGPPTPAWAKPTNTQAYSGDYMEPEKPGAPLLPPPPQNSVPHYAEADIVTLQGVTGGNTYAVPALPPGAVGDGPPRVDFPRSRLRFKEKLGEGQFGEVHLCEVDSPQDLVSLDFPLNVRKGHPLLVAVKILRPDATKNARNDFLKEVKIMSRLKDPNIIRLLGVCVQDDPLCMITDYMENGDLNQFLSAHQLEDKAAEGAPGDGQAAQGPTISYPMLLHVAAQIASGMRYLATLNFVHRDLATRNCLVGENFTIKIADFGMSRNLYAGDYYRVQGRAVLPIRWMAWECILMGKFTTASDVWAFGVTLWEVLMLCRAQPFGQLTDEQVIENAGEFFRDQGRQVYLSRPPACPQGLYELMLRCWSRESEQRPPFSQLHRFLAEDALNTV | > 70 | –
DDR1 A417C (in the C287S background) (receptor, human, UniProt Q08345 19-913, looked up, discoidin domain receptor 1, isoform DDR1b, human; full-length cDNA in pRK5; source: HEK293, transiently transfected, in lysate) DADMKGHFDPAKCRYALGMQDRTIPDSDISASSSWSDSTAARHSRLESSDGDGAWCPAGSVFPKEEEYLQVDLQRLHLVALVGTQGRHAGGLGKEFSRSYRLRYSRDGRRWMGWKDRWGQEVISGNEDPEGVVLKDLGPPMVARLVRFYPRADRVMSVCLRVELYGCLWRDGLLSYTAPVGQTMYLSEAVYLNDSTYDGHTVGGLQYGGLGQLADGVVGLDDFRKSQELRVWPGYDYVGWSNHSFSSGYVEMEFEFDRLRAFQAMQVHSNNMHTLGARLPGGVECRFRRGPAMAWEGEPMRHNLGGNLGDPRARAVSVPLGGRVARFLQCRFLFAGPWLLFSEISFISDVVNNSSPALGGTFPPAPWWPPGPPPTNFSSLELEPRGQQPVAKAEGSPTCILIGCLVAIILLLLLIIALMLWRLHWRRLLSKAERRVLEEELTVHLSVPGDTILINNRPGPREPPPYQEPRPRGNPPHSAPCVPNGSALLLSNPAYRLLLATYARPPRGPGPPTPAWAKPTNTQAYSGDYMEPEKPGAPLLPPPPQNSVPHYAEADIVTLQGVTGGNTYAVPALPPGAVGDGPPRVDFPRSRLRFKEKLGEGQFGEVHLCEVDSPQDLVSLDFPLNVRKGHPLLVAVKILRPDATKNARNDFLKEVKIMSRLKDPNIIRLLGVCVQDDPLCMITDYMENGDLNQFLSAHQLEDKAAEGAPGDGQAAQGPTISYPMLLHVAAQIASGMRYLATLNFVHRDLATRNCLVGENFTIKIADFGMSRNLYAGDYYRVQGRAVLPIRWMAWECILMGKFTTASDVWAFGVTLWEVLMLCRAQPFGQLTDEQVIENAGEFFRDQGRQVYLSRPPACPQGLYELMLRCWSRESEQRPPFSQLHRFLAEDALNTV | – | ~4
DDR1 residue 418 to cysteine (in the C287S background) (receptor, human, UniProt Q08345 19-913, looked up, discoidin domain receptor 1, isoform DDR1b, human; full-length cDNA in pRK5; source: HEK293, transiently transfected, in lysate) DADMKGHFDPAKCRYALGMQDRTIPDSDISASSSWSDSTAARHSRLESSDGDGAWCPAGSVFPKEEEYLQVDLQRLHLVALVGTQGRHAGGLGKEFSRSYRLRYSRDGRRWMGWKDRWGQEVISGNEDPEGVVLKDLGPPMVARLVRFYPRADRVMSVCLRVELYGCLWRDGLLSYTAPVGQTMYLSEAVYLNDSTYDGHTVGGLQYGGLGQLADGVVGLDDFRKSQELRVWPGYDYVGWSNHSFSSGYVEMEFEFDRLRAFQAMQVHSNNMHTLGARLPGGVECRFRRGPAMAWEGEPMRHNLGGNLGDPRARAVSVPLGGRVARFLQCRFLFAGPWLLFSEISFISDVVNNSSPALGGTFPPAPWWPPGPPPTNFSSLELEPRGQQPVAKAEGSPTACLIGCLVAIILLLLLIIALMLWRLHWRRLLSKAERRVLEEELTVHLSVPGDTILINNRPGPREPPPYQEPRPRGNPPHSAPCVPNGSALLLSNPAYRLLLATYARPPRGPGPPTPAWAKPTNTQAYSGDYMEPEKPGAPLLPPPPQNSVPHYAEADIVTLQGVTGGNTYAVPALPPGAVGDGPPRVDFPRSRLRFKEKLGEGQFGEVHLCEVDSPQDLVSLDFPLNVRKGHPLLVAVKILRPDATKNARNDFLKEVKIMSRLKDPNIIRLLGVCVQDDPLCMITDYMENGDLNQFLSAHQLEDKAAEGAPGDGQAAQGPTISYPMLLHVAAQIASGMRYLATLNFVHRDLATRNCLVGENFTIKIADFGMSRNLYAGDYYRVQGRAVLPIRWMAWECILMGKFTTASDVWAFGVTLWEVLMLCRAQPFGQLTDEQVIENAGEFFRDQGRQVYLSRPPACPQGLYELMLRCWSRESEQRPPFSQLHRFLAEDALNTV | – | ~4
DDR1 residue 419 to cysteine (in the C287S background) (receptor, human, UniProt Q08345 19-913, looked up, discoidin domain receptor 1, isoform DDR1b, human; full-length cDNA in pRK5; also called TM cysteine mutant, residue 419; source: HEK293, transiently transfected, in lysate) DADMKGHFDPAKCRYALGMQDRTIPDSDISASSSWSDSTAARHSRLESSDGDGAWCPAGSVFPKEEEYLQVDLQRLHLVALVGTQGRHAGGLGKEFSRSYRLRYSRDGRRWMGWKDRWGQEVISGNEDPEGVVLKDLGPPMVARLVRFYPRADRVMSVCLRVELYGCLWRDGLLSYTAPVGQTMYLSEAVYLNDSTYDGHTVGGLQYGGLGQLADGVVGLDDFRKSQELRVWPGYDYVGWSNHSFSSGYVEMEFEFDRLRAFQAMQVHSNNMHTLGARLPGGVECRFRRGPAMAWEGEPMRHNLGGNLGDPRARAVSVPLGGRVARFLQCRFLFAGPWLLFSEISFISDVVNNSSPALGGTFPPAPWWPPGPPPTNFSSLELEPRGQQPVAKAEGSPTAICIGCLVAIILLLLLIIALMLWRLHWRRLLSKAERRVLEEELTVHLSVPGDTILINNRPGPREPPPYQEPRPRGNPPHSAPCVPNGSALLLSNPAYRLLLATYARPPRGPGPPTPAWAKPTNTQAYSGDYMEPEKPGAPLLPPPPQNSVPHYAEADIVTLQGVTGGNTYAVPALPPGAVGDGPPRVDFPRSRLRFKEKLGEGQFGEVHLCEVDSPQDLVSLDFPLNVRKGHPLLVAVKILRPDATKNARNDFLKEVKIMSRLKDPNIIRLLGVCVQDDPLCMITDYMENGDLNQFLSAHQLEDKAAEGAPGDGQAAQGPTISYPMLLHVAAQIASGMRYLATLNFVHRDLATRNCLVGENFTIKIADFGMSRNLYAGDYYRVQGRAVLPIRWMAWECILMGKFTTASDVWAFGVTLWEVLMLCRAQPFGQLTDEQVIENAGEFFRDQGRQVYLSRPPACPQGLYELMLRCWSRESEQRPPFSQLHRFLAEDALNTV | – | ~4
DDR1 residue 420 to cysteine (in the C287S background) (receptor, human, UniProt Q08345 19-913, looked up, discoidin domain receptor 1, isoform DDR1b, human; full-length cDNA in pRK5; also called TM cysteine mutant, residue 420; source: HEK293, transiently transfected, in lysate) DADMKGHFDPAKCRYALGMQDRTIPDSDISASSSWSDSTAARHSRLESSDGDGAWCPAGSVFPKEEEYLQVDLQRLHLVALVGTQGRHAGGLGKEFSRSYRLRYSRDGRRWMGWKDRWGQEVISGNEDPEGVVLKDLGPPMVARLVRFYPRADRVMSVCLRVELYGCLWRDGLLSYTAPVGQTMYLSEAVYLNDSTYDGHTVGGLQYGGLGQLADGVVGLDDFRKSQELRVWPGYDYVGWSNHSFSSGYVEMEFEFDRLRAFQAMQVHSNNMHTLGARLPGGVECRFRRGPAMAWEGEPMRHNLGGNLGDPRARAVSVPLGGRVARFLQCRFLFAGPWLLFSEISFISDVVNNSSPALGGTFPPAPWWPPGPPPTNFSSLELEPRGQQPVAKAEGSPTAILCGCLVAIILLLLLIIALMLWRLHWRRLLSKAERRVLEEELTVHLSVPGDTILINNRPGPREPPPYQEPRPRGNPPHSAPCVPNGSALLLSNPAYRLLLATYARPPRGPGPPTPAWAKPTNTQAYSGDYMEPEKPGAPLLPPPPQNSVPHYAEADIVTLQGVTGGNTYAVPALPPGAVGDGPPRVDFPRSRLRFKEKLGEGQFGEVHLCEVDSPQDLVSLDFPLNVRKGHPLLVAVKILRPDATKNARNDFLKEVKIMSRLKDPNIIRLLGVCVQDDPLCMITDYMENGDLNQFLSAHQLEDKAAEGAPGDGQAAQGPTISYPMLLHVAAQIASGMRYLATLNFVHRDLATRNCLVGENFTIKIADFGMSRNLYAGDYYRVQGRAVLPIRWMAWECILMGKFTTASDVWAFGVTLWEVLMLCRAQPFGQLTDEQVIENAGEFFRDQGRQVYLSRPPACPQGLYELMLRCWSRESEQRPPFSQLHRFLAEDALNTV | – | ~4
DDR1 G421C (in the C287S background) (receptor, human, UniProt Q08345 19-913, looked up, discoidin domain receptor 1, isoform DDR1b, human; full-length cDNA in pRK5; source: HEK293, transiently transfected, in lysate) DADMKGHFDPAKCRYALGMQDRTIPDSDISASSSWSDSTAARHSRLESSDGDGAWCPAGSVFPKEEEYLQVDLQRLHLVALVGTQGRHAGGLGKEFSRSYRLRYSRDGRRWMGWKDRWGQEVISGNEDPEGVVLKDLGPPMVARLVRFYPRADRVMSVCLRVELYGCLWRDGLLSYTAPVGQTMYLSEAVYLNDSTYDGHTVGGLQYGGLGQLADGVVGLDDFRKSQELRVWPGYDYVGWSNHSFSSGYVEMEFEFDRLRAFQAMQVHSNNMHTLGARLPGGVECRFRRGPAMAWEGEPMRHNLGGNLGDPRARAVSVPLGGRVARFLQCRFLFAGPWLLFSEISFISDVVNNSSPALGGTFPPAPWWPPGPPPTNFSSLELEPRGQQPVAKAEGSPTAILICCLVAIILLLLLIIALMLWRLHWRRLLSKAERRVLEEELTVHLSVPGDTILINNRPGPREPPPYQEPRPRGNPPHSAPCVPNGSALLLSNPAYRLLLATYARPPRGPGPPTPAWAKPTNTQAYSGDYMEPEKPGAPLLPPPPQNSVPHYAEADIVTLQGVTGGNTYAVPALPPGAVGDGPPRVDFPRSRLRFKEKLGEGQFGEVHLCEVDSPQDLVSLDFPLNVRKGHPLLVAVKILRPDATKNARNDFLKEVKIMSRLKDPNIIRLLGVCVQDDPLCMITDYMENGDLNQFLSAHQLEDKAAEGAPGDGQAAQGPTISYPMLLHVAAQIASGMRYLATLNFVHRDLATRNCLVGENFTIKIADFGMSRNLYAGDYYRVQGRAVLPIRWMAWECILMGKFTTASDVWAFGVTLWEVLMLCRAQPFGQLTDEQVIENAGEFFRDQGRQVYLSRPPACPQGLYELMLRCWSRESEQRPPFSQLHRFLAEDALNTV | – | ~4

Reference: publication PMC4036362, “Normal Activation of Discoidin Domain Receptor 1 Mutants with Disulfide Cross-links, Insertions, or Deletions in the Extracellular Juxtamembrane Region” (The Journal of Biological Chemistry, 2014)
